{"source": "patent US20180344832A1", "target": "PDL1 on the surface of TC-1 cells (murine (TC-1 murine tumor cell line)) (UniProt Q9EP73)", "sequence (Q9EP73 19-290)": "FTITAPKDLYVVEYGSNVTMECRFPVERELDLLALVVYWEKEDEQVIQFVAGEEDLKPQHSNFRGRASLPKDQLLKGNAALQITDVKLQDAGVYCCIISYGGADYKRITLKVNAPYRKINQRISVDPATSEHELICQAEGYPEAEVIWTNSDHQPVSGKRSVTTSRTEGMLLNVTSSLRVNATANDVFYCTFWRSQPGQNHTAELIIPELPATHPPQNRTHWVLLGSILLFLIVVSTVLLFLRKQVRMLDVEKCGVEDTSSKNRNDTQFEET", "assay": "flow cytometry on TC-1 cells, isotype background control"}
{"substance": "PE-conjugated isotype control antibody", "values": [{"measurement": "median fluorescent intensity (MFI)", "result": 184, "unit": "MFI"}]}
